Assay results published in patent US20150267232A1, “IN VIVO AND IN VITRO CARBENE INSERTION AND NITRENE TRANSFER REACTIONS CATALYZED BY HEME ENZYMES” (California Institute of Technology, priority 2012, published 2015).

Legend:
Type in all cases: biochemical
[1] = Small-scale anaerobic C—H amination with purified enzymes, azide 4; conditions: 0.1% loading; azide 4
Method: (§1) Hemin also was capable of catalyzing this reaction when reduced with dithionite (Table 13).
(§2) Small scale reactions containing either 0.1% loading of ABC-CIS or ABC-T268A or 1% loading of hemin with azides 1, 4, or 6 according to standard procedures.
(§3) Small-scale reactions (400 μL) were conducted in 2 mL crimp vials (Agilent Technologies, San Diego, Calif.) containing buffer (0.1 M potassium phosphate pH 8.0), enzyme (0.1-0.5% catalyst loading) and oxygen depletion system (10× stock solution containing 14,000 U/mL catalase, 1,000 U/mL glucose oxidase dissolved in 0.1 M KPi pH 8.0). Enzyme (P450 or P411) solution and oxygen depletion mixture were added to the vial with a small stir bar before crimp-sealing. Portions of phosphate buffer (190 μL, 0.1 M, pH=8.0), glucose (40 μL, 250 mM) and NADPH (40 μL, 20 mM), or multiples thereof, were combined in a larger crimp sealed vial and degassed by sparging with argon for at least 5 min. In the meantime, the headspace of the sealed 2 mL reaction vial with the P450 solution was made anaerobic by flushing argon over the protein solution (with no bubbling). The buffer/reductant/glucose solution (270 μL) was syringed into the reaction vial with continuous argon purge of the vial headspace. An arylsulfonyl azide solution in DMSO (10 μL, 80 mM) was added to the reaction vial via a glass syringe, and the reaction was left stirring for 24 h at room temperature under positive argon pressure. Final concentrations of the reagents were typically: 2 mM arylsulfonyl azide, 2 mM NADPH, 25 mM glucose, 2 or 10 μM P450. Reactions were quenched by adding 30 μL 3 M HCl under argon. To the vials were then added acetonitrile (430 uL) and internal standard (o-toluenesulfonamide 10 mM in 50% acetonitrile 50% water, 1 mM final concentration). […] A portion (20 μL) of the supernatant was then analyzed by HPLC. […] Sultam formation was quantified comparison of integrated peak areas of internal standard and sultam at 220 nm to a calibration curve made using synthetically produced sultam and internal standard.

[2] = Small-scale anaerobic C—H amination with purified enzymes, azide 6; conditions: 0.1% loading; azide 6
Method: as §1, §2, §3

[3] = Small-scale anaerobic C—H amination with purified enzymes, azide 1
Method in brief: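 Purified P450 or P411 enzymes (0.1-0.5% catalyst loading) in 400 μL reactions of 0.1 M potassium phosphate pH 8.0 with a catalase/glucose oxidase oxygen-depletion system were made anaerobic under argon, given 10 μL of 80 mM arylsulfonyl azide in DMSO, and stirred 24 h at room temperature. After HCl quench and acetonitrile addition, sultam was quantified by HPLC at 220 nm against an internal standard; enantioselectivity was measured by chiral HPLC.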

[4] = CS heme-Na2S2O4 + NADPH (heme domain)
[5] = Complete system (CS), holoenzyme

B1: ABC-T268A: P450BM3 variant: T268A, C400S (protein, listed as Bacillus megaterium)
chain: TIKEMPQPKTFGELKNLPLLNTDKPVQALMKIADELGEIFKFEAPGRVTRYLSSQRLIKEACDESRFDKNLSQALKFVRDFAGDGLFTSWTHEKNWKKAHNILLPSFSQQAMKGYHAMMVDIAVQLVQKWERLNADEHIEVPEDMTRLTLDTIGLCGFNYRFNSFYRDQPHPFITSMVRALDEAMNKLQRANPDDPAYDENKRQFQEDIKVMNDLVDKIIADRKASGEQSDDLLTHMLNGKDPETGEPLDDENIRYQIITFLIAGHEATSGLLSFALYFLVKNPHVLQKAAEEAARVLVDPVPSYKQVKQLKYVGMVLNEALRLWPTAPAFSLYAKEDTVLGGEYPLEKGDELMVLIPQLHRDKTIWGDDVEEFRPERFENPSAIPQHAFKPFGNGQRASIGQQFALHEATLVLGMMLKHFDFEDHTNYELDIKETLTLKPEGFVVKAKSKKIPLGGIPSPSTEQSAKKVRKKAENAHNTPLLVLYGSNMGTAEGTARDLADIAMSKGFAPQVATLDSHAGNLPREGAVLIVTASYNGHPPDNAKQFVDWLDQASADEVKGVRYSVFGCGDKNWATTYQKVPAFIDETLAAKGAENIADRGEADASDDFEGTYEEWREHMWSDVAAYFNLDIENSEDNKSTLSLQFVDSAADMPLAKMHGAFSTNVVASKELQQPGSARSTRHLEIELPKEASYQEGDHLGVIPRNYEGIVNRVTARFGLDASQQIRLEAEEEKLAHLPLAKTVSVEELLQYVELQDPVTRTQLRAMAAKTVCPPHKVELEALLEKQAYKEQVLAKRLTMLELLEKYPACEMKFSEFIALLPSIRPRYYSISSSPRVDEKQASITVSVVSGEAWSGYGEYKGIASNYLAELQEGDTITCFISTPQSEFTLPKDPETPLIMVGPGTGVAPFRGFVQARKQLKEQGQSLGEAHLYFGCRSPHEDYLYQEELENAQSEGIITLHTAFSRMPNQPKTYVQHVMEQDGKKLIELLDQGAHFYICGDGSQMAPAVEATLMKSYADVHQVSEADARLWLQQLEEKGRYAKDVWAG
modifications: cytochrome P450NADPH-P-450 reductase precursor, cytochrome P450 (BM3), CYP102A1
notes: P450BM3 variant: T268A, C400S
Product (5) [1]: 22
Product (7) [2]: 27
Product (3) ([3]; 0.1% loading, azide 1, TTN): 135
TTN ([3]; 0.1 mol % catalyst loading (2 μM), 2 mM azide 1, 2 mM NADPH, benzosultam 3): 120
% ee ([3]; 0.1 mol % catalyst loading, (S−R)/(S+R), benzosultam 3): 58%
% activity ([3]; Boiled P450heme): 9.1%
% ee ([3]; Boiled P450heme): 3%
TTN ([3]; Boiled P450heme): 10
% activity ([3]; Boiled P450holo): 30%
% ee ([3]; Boiled P450holo): 1%
TTN ([3]; Boiled P450holo): 33
% activity ([3]; CS + CO): 4.4%
TTN ([3]; CS + CO): 5
% activity ([3]; CS aerobic): 9.1%
% ee ([3]; CS aerobic): 60%
TTN ([3]; CS aerobic): 10
% activity ([3]; CS heme): 145%
% ee ([3]; CS heme): 91%
TTN ([3]; CS heme (heme domain, 2 mM Na2S2O4)): 160
% activity ([3]; CS heme + CO): 0%
TTN ([3]; CS heme + CO): 0
% activity ([3]; CS heme aerobic): 0%
TTN ([3]; CS heme aerobic): 0
% activity [3, 4]: 3.6%
TTN [3, 4]: 4
% ee ([3]; CS-NADPH + Na2S2O4): 44%
TTN ([3]; CS-NADPH + Na2S2O4): 130
% activity ([3]; CS-NADPH + Na2S2O4, residual activity (CS = 100%)): 120%
% ee [3, 5]: 38%
TTN [3, 5]: 110
activity with reductant NADPH ([3]; NADPH (2 mM), 0.1 mol % loading, azide 1): 110
activity with reductant Dithionite ([3]; dithionite (2 mM), 0.1 mol % loading, azide 1): 110
